Consider 1 substance from US20100098706A1.

The assay addresses human CD16 receptor (FcgammaRIIIa) (human) (UniProt P08637). Description: flow cytometry on NK cells; competition with 3G8-PE; antibody at 50 µg/ml.

human CD16 receptor (FcgammaRIIIa) (human), sequence (P08637 17-254): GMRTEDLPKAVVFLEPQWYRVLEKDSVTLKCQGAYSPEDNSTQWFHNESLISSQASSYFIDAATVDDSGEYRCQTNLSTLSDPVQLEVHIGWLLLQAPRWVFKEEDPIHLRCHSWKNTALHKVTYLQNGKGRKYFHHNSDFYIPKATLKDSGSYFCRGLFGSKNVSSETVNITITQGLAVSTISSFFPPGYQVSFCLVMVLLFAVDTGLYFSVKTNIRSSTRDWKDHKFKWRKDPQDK

As for Rituxan® (antibody), the binding percentage (100% = total inhibition of 3G8 binding) came out at 18.5%.
